According to CN115960237A:

B1: 第一单克隆抗体 (first anti-OXA-48 enzyme monoclonal antibody) (antibody, V domains shown)
VH: EVKLVESGGGLVQPGRSLRLSCATSGFTFADYSMTWVRQPPGKGLEWVGLIKRNAYGGTTEYAASVRGRFTISRDNSQSIAYLQMNTLRTEDTPAYYCLRGYSGYDWEGLDAFDVWGQGTMVTVSS
VL: DIVMSQSPSSLAVSLGEKVTINCKSGQSVLFTSNNKNYLAWYQQKPGQPPKLLISWASTRESGVPDRFSGSGSGTDFTLAISSVQAEDVAVYYCQQYYSPGPFTFGQGTKVEIK
B2: 第二单克隆抗体 (second anti-OXA-48 enzyme monoclonal antibody) (antibody, V domains shown)
VH: EVQLVESGGGLVKPGGSLRLSCAASGFTFSGYWMHWVRQAPEKGLVWVAYINSDGSSTNYADSVKGRFTISRDNAKNTLFLQMNSLRAEDTAMYYCARGGGYSYGPFDYWGQGTSVTVSS
VL: QSVLTQPSSASTSPGSSVKLSCTGTSSDIGNNDYVSWYQQYMGRPPTNIIYDVSRRPSGVSDRFSGSIDRSSNTAFLTVNNVQADDEADYYCSSYAGSSNLVFGGGTKLTV

Target: OXA-48酶抗原 (recombinant OXA-48 enzyme antigen) (UniProt Q6XEC0)
Experiment: indirect ELISA, OXA-48 antigen coated at 100 ng per well, goat anti-rabbit IgG-HRP, OD450

Sequence of UniProt Q6XEC0 (Q6XEC0 23-265 limits assumed): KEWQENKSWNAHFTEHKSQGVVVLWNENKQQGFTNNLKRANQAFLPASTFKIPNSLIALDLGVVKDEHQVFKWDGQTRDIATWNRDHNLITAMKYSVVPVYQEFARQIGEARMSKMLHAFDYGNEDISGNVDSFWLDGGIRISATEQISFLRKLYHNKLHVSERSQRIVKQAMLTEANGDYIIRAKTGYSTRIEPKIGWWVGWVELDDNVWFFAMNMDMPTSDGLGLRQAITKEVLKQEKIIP

Binder	OD值 (OD450 at 1:1280000 dilution)	效价 (ELISA titer) (dilution factor (1:x))
B1	0.5 OD	1.28e+06
B2	> 0.5 OD	1.28e+06
